The target in assay [1] is microtubules assembled from porcine brain tubulin (porcine) (UniProt P02550).
For assay [2], the target named is unmodified human microtubules (tubulin from tsA201 cells) (human (endogenous in tsA201)) (UniProt P68363). Briefly: TIRF microscopy binding assay.
Assay [3] deals with microtubules assembled from porcine brain tubulin (porcine) (UniProt P02550). This is another data set of the same source.

Changes are numbered by the printed parent chain. Names and notes keep the numbering of the source. Like-named read-outs stand apart in the source and are kept apart here.

Sequence of microtubules assembled from porcine brain tubulin (porcine) (P02550 whole entry, chain 1 of 2): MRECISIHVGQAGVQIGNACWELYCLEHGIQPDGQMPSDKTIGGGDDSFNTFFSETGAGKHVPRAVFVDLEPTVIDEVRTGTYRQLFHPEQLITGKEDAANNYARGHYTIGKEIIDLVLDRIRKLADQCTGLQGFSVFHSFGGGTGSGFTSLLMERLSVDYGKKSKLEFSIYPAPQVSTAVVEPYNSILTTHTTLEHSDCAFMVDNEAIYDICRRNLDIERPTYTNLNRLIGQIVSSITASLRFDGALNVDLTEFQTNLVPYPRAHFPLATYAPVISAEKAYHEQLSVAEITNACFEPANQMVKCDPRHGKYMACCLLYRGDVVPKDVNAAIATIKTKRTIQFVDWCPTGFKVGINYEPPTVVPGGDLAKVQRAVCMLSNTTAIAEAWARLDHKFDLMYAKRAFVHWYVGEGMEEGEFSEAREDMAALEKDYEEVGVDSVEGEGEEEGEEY
Sequence of microtubules assembled from porcine brain tubulin (porcine) (P02554 whole entry, chain 2 of 2, further chain): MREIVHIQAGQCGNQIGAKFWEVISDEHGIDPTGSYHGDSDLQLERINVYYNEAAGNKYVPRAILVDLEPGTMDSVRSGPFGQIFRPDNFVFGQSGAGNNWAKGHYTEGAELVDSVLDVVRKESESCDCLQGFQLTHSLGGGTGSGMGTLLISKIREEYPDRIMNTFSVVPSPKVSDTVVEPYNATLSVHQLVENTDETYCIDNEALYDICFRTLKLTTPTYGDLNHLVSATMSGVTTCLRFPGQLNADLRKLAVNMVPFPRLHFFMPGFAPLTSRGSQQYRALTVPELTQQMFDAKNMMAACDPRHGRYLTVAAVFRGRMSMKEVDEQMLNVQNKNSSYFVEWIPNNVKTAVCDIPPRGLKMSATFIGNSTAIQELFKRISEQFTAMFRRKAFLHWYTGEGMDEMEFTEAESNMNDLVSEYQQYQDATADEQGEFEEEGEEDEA

B1: TTLL6 Y479A (enzyme)
chain: GKKKRKKKRLVINLSNCRYDSVRRAAQQYGLREAGDNDDWTLYWTDYSVSLERVMEMKSYQKINHFPGMSEICRKDLLARNMSRMLKLFPKDFHFFPRTWCLPADWGDLQTYSRTRKNKTYICKPDSGCQGRGIFITRSVKEIKPGEDMICQLYISKPFIIDGFKFDLRVYVLVTSCDPLRVFVYNEGLARFATTSYSHPNLDNLDEICMHLTNYSINKHSSNFVQDAFSGSKRKLSTFNSYMKTHGYDVEQIWRGIEDVIIKTLISAHPVIKHNYHTCFPSHTLNSACFEILGFDILLDRKLKPWLLEVNHSPSFSTDSKLDKEVKDSLLYDALVLINLGNCDKKKVLEEERQRGRFLQQCPNREIRLEEVKGFQAMRLQKTEEYEKKNCGGFRLIYPGLNLEKYDKFFQDNSSLFQNTVASRARELAARQLIQELRQKQEKKVFLKKARK
Turning to B1, the glutamylation activity with taxol-stabilized MTs, normalized to WT in assay [1] was 35 % of WT.

B2: Atto488-labeled TTLL6 (enzyme)
chain: B1 chain with A429Y
modifications: Atto488 on the N-terminus, through the synthetic peptide NH2-(Atto488)-… ligated with sortase
Molecule B2 showed a Kd in assay [2] of 210 nM.

B3: TTLL6 Val422 to alanine (enzyme)
chain: B1 chain with V372A, A429Y
Regarding B3, in assay [3], the glutamylation activity with taxol-stabilized MTs, normalized to WT was < 10 % of WT.

B4: TTLL6 K490 to glutamate (enzyme)
chain: B1 chain with A429Y, K440E
Consider B4, for which the glutamylation activity with taxol-stabilized MTs, normalized to WT in assay [1] was < 20 % of WT.

B5: TTLL6 F425 to alanine (enzyme)
chain: B1 chain with F375A, A429Y
Molecule B5 came in with a glutamylation activity with taxol-stabilized MTs, increase against WT in assay [3] of 59 % increase.

B6: TTLL6 F408 to alanine (enzyme)
chain: B1 chain with F358A, A429Y
On to B6, for which the glutamylation activity with taxol-stabilized MTs, increase against WT in assay [3] turned out to be 70 % increase.

B7: TTLL6 Leu409 to alanine (enzyme)
chain: B1 chain with L359A, A429Y
Take B7: the glutamylation activity with taxol-stabilized MTs, normalized to WT in assay [3] was < 10 % of WT.

One may read the Kd as a measure of binding affinity in units of concentration. A lower Kd goes with higher affinity.

(Values after article PMC11529724.)
